For one substance, proportion of MII oocytes that developed into blastocyst-stage embryos, proportion of MII oocytes that developed into two-cell stage embryos and proportion of oocytes showing first polar body extrusion (MII-stage oocytes), 3 ng/ml BDNF with 5% FBS results are on record in US20110052599A1.

In the test the target is TrkB receptor expressed in mouse oocytes (mouse) (UniProt P15209). As to the kind of experiment: cell-based or functional assay.

In the case of “recombinant human BDNF (Pepro-Tech, Rocky Hill, N.J.) (from UniProt P23560 19-247) (ligand)”, the proportion of MII oocytes that developed into blastocyst-stage embryos was determined as 5 fold; the proportion of MII oocytes that developed into two-cell stage embryos worked out at 2 fold; the proportion of oocytes showing first polar body extrusion (MII-stage oocytes), 3 ng/ml BDNF with 5% FBS was > 2 fold.
